The values below come from patent US20180312578A1 (Ablynx, published 2018).

The target in this experiment is T1, human serum albumin (human, UniProt P02768 25-609).
T1 construct: also called HSA
Description: ProteOn SPR, capture on immobilised HSA.
Description: In case of binding of pre-existing antibodies on Nanobodies captured on human serum albumin (HSA) was evaluated using the ProteOn XPR36 (Bio-Rad Laboratories, Inc.). PBS/Tween (phosphate buffered saline, pH7.4, 0.005% Tween20) was used as running buffer and the experiments were performed at 25° C. The ligand lanes of a ProteOn GLC Sensor Chip were activated with EDC/NHS (flow rate 30 μl/min) and HSA was injected at 10 μg/ml in ProteOn Acetate buffer pH4.5 (flow rate 100 μl/min) to render immobilization levels of approximately 3200 RU. After immobilization, surfaces were deactivated with ethanolamine HCl (flow rate 30 μl/min). Nanobodies were injected for 2 minutes at 45 μl/min over the HSA surface to render a Nanobody capture level of approximately 200 RU. The samples containing pre-existing antibodies were centrifuged for 2 minutes at 14,000 rpm and supernatant was diluted 1:10 in PBS-Tween20 (0.005%) before being injected for 2 minutes at 45 μl/min followed by a subsequent 400 seconds dissociation step. After each cycle (i.e. before a new Nanobody capture and blood sample injection step) the HSA surfaces were regenerated with a 2 minute injection of HCl (100 mM) at 45 μl/min. Sensorgram processing and data analysis was performed with ProteOn Manager 3.1.0 (Bio-Rad Laboratories, Inc.). Sensorgrams showing pre-existing antibody binding were obtained after double referencing by subtracting 1) Nanobody-HSA dissociation and 2) non-specific binding to reference ligand lane.

B1: Reference C (SEQ ID NO: 3) (VHH)
VHH: EVQLLESGGGLVQPGGSLRLSCAASGFTFDTSSMLWVRQAPGKGLEWVSVIHQSGTPTYYADSVKGRFTISRDNSKNTLYLQMNSLRAEDTAVYYCAKFPSSRMKFDYWGQGTLVTVSS
notes: Heavy-chain immunoglobulin single variable domain (VH-derived domain antibody); Captured on human serum albumin; also called DOM7r-92-100
Turning to B1, the binding result is “binds”.

B2: Reference D+L11V+V89L (SEQ ID NO: 93) (VHH)
VHH: EVQLLESGGGVVQPGGSLRLSCAASGFTFDTSSMLWVRQAPGKGLEWVSVIHQSGTPTYYADSVKGRFTISRDNSKNTLYLQMNSLRAEDTALYYCAKFPSSRMKFDYWGQGTLVTVSS
As to B2, the binding result is “binds”.

B3: Reference D (SEQ ID NO: 4) (VHH)
VHH: EVQLLESGGGLVQPGGSLRLSCAASGFTFDTSSMLWVRQAPGKGLEWVSVIHQSGTPTYYADSVKGRFTISRDNSKNTLYLQMNSLRAEDTAVYYCAKFPSSRMKFDYWGQGTLVTVSS
notes: Captured on human serum albumin; also called DOM7r-92-104
As for B3, the binding result was “binds”.

B4: Reference D+L11V+V89L+T110K (SEQ ID NO: 94) (VHH)
VHH: EVQLLESGGGVVQPGGSLRLSCAASGFTFDTSSMLWVRQAPGKGLEWVSVIHQSGTPTYYADSVKGRFTISRDNSKNTLYLQMNSLRAEDTALYYCAKFPSSRMKFDYWGQGTLVKVSS
As to B4, the binding result is listed as “binds”.
